For this assay, the target named is T1, His-Bub1TPR (fission yeast Bub1 residues 22-184) (S. pombe, UniProt O94751 22-184).
T1 construct: Bub1, S. pombe, TPR domain, residues 22-184; Cloned into pET-DUET; also called recombinant Bub1-TPR; source: E. coli ArcticExpress, purified (cobalt IMAC, dialysis); not shown: His, N-terminal, kept
T1 sequence (looked up): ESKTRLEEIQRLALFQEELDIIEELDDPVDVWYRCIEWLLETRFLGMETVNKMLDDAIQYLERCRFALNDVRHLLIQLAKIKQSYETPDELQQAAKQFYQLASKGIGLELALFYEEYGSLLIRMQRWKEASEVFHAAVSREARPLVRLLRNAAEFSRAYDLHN
Briefly: SEC; Superdex 200 increase 10/300 in 50 mM Tris pH 8.0, 150 mM NaCl, 5% glycerol, 2 mM DTT; proteins alone and mixed, fractions on SDS-PAGE. Particulars: both partners purified.

Experimental findings from paper PMC6657678, “The Bub1-TPR Domain Interacts Directly with Mad3 to Generate Robust Spindle Checkpoint Arrest” (Current Biology, 2019) are described below.

B1: His-GFP-Mad3TPR (fission yeast Mad3 residues 44-201) (domain or fragment, S. pombe, UniProt O59767 44-201, looked up)
chain: TEKEVAGLQKERMGHERKIETSESLDDPLQVWIDYIKWTLDNFPQGETKTSGLVTLLERCTREFVRNPLYKDDVRYLRIWMQYVNYIDEPVELFSFLAHHHIGQESSIFYEEYANYFESRGLFQKADEVYQKGKRMKAKPFLRFQQKYQQFTHRWLEF
notes: Mad3, S. pombe, TPR domain, residues 44-201; Cloned into the 9GFP (N-terminal His-GFP tag) LIC vector; source: E. coli ArcticExpress, purified (cobalt IMAC, dialysis); not shown: His, N-terminal, kept; GFP, N-terminal, kept
Regarding B1, the binding result is on record as “binds”.
